Values belong to the binder of their own block, whether it stands above or below them.
Columns and labels:
[1] = molecular target: T1, CD33 expressed on MV4-11 human AML cells (human, UniProt P20138 18-364); assay: flow cytometry on MV4-11 cells
T1 construct: whole, on cells; also called cell-expressed CD33

[2] = molecular target: T1, CD33 expressed on MV4-11 human AML cells; assay: flow cytometry on MV4-11 cells, MFI fold over background
[3] = molecular target: T2, murine NKG2D overexpressed on EL4 cells (EL4-mNKG2D) (mouse, UniProt O54709 1-232); assay: flow cytometry, 60 ug/mL with four-fold dilutions, EL4-mNKG2D cells, goat anti-mouse PE
T2 construct: whole, on cells; also called EL4-mNKG2D cells
T2 sequence (looked up): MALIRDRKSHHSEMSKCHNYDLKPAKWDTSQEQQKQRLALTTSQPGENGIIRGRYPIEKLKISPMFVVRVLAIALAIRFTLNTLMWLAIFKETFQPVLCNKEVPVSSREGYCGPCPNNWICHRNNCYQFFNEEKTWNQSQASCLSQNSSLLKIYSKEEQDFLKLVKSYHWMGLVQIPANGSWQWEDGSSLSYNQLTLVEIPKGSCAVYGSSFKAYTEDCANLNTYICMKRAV

[4] = molecular target: T3, Tyrp-1 on B16F10 melanoma cells (UniProt P07147 25-537, limits assumed); assay: flow cytometry, 60 ug/mL with four-fold dilutions, B16F10 tumor cells, goat anti-mouse PE
T3 construct: whole, on cells; B16F10 is a mouse melanoma line; also called Tyrp-1-positive B16F10 melanoma cells

T1 sequence (P20138 18-364): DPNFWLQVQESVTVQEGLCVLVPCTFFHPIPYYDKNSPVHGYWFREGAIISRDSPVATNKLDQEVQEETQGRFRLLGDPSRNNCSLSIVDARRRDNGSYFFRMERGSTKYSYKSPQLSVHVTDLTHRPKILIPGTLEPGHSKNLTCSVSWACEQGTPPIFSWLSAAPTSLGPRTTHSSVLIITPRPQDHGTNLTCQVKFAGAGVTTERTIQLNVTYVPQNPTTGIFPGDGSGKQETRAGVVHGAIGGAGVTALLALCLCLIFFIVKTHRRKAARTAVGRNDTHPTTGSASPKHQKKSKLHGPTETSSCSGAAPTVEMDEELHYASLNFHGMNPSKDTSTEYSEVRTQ

binding result [1]: binds
B1: CD33-TriNKET-C26 (ADI-28226 and a CD33-binding domain) (bispecific antibody, V domains shown)
VH 1: QVQLQQWGAGLLKPSETLSLTCAVYGGSFSGYYWSWIRQPPGKGLEWIGEIDHSGSTNYNPSLKSRVTISVDTSKNQFSLKLSSVTAADTAVYYCARARGPWSFDPWGQGTLVTVSS
VL 1: DIQMTQSPSTLSASVGDRVTITCRASQSISSWLAWYQQKPGKAPKLLIYKASSLESGVPSRFSGSGSGTEFTLTISSLQPDDFATYYCQQYGSFPITFGGGTKVEIK
VH 2: QVQLVQSGAEVKKPGASVKVSCKASGYTFTDYVVHWVRQAPGQGLEWMGYINPYNDGTKYNEKFKGRVTMTRDTSISTAYMELSRLRSDDTAVYYCARDYRYEVYGMDYWGQGTLVTVSS
VL 2: DIVLTQSPASLAVSPGQRATITCTASSSVNYIHWYQQKPGQPPKLLIYDTSKVASGVPARFSGSGSGTDFTLTINPVEANDTANYYCQQWRSYPLTFGQGTKLEIK
notes: also called C26-TriNKET-CD33

binding result [2]: binds
B2: parental anti-CD33 monoclonal antibody (antibody, V domains shown)
VH: B1 VH 2
VL: B1 VL 2
notes: also called parental monoclonal anti-CD33 antibody; parental anti-CD33 antibody

binding result [3]: binds | binding result [4]: binds
B3: mcFAE-C26.99 TriNKET (bispecific antibody, mouse IgG2c)
heavy 1: QVQLQQWGAGLLKPSETLSLTCAVYGGSFSGYYWSWIRQPPGKGLEWIGEIDHSGSTNYNPSLKSRVTISVDTSKNQFSLKLSSVTAADTAVYYCARARGPWSFDPWGQGTLVTVSSAKTTAPSVYPLAPVCGGTTGSSVTLGCLVKGYFPEPVTLTWNSGSLSSGVHTFPALLQSGLYTLSSSVTVTSNTWPSQTITCNVAHPASSTKVDKKIEPRVPITQNPCPPLKECPPCAAPDLLGGPSVFIFPPKIKDVLMISLSPMVTCVVVDVSEDDPDVQISWFVNNVEVHTAQTQTHREDYNSTLRVVSALPIQHQDWMSGKEFKCKVNNRALPSPIEKTISKPRGPVRAPQVYVLPPPAEEMTKKEFSLTCMIKGFLPAEIAVDWTSNGRTEQNYKNTATVLDSDGSYFMYSRLRVQKSTWERGSLFACSVVHEGLHNHLTTKTISRSLGK
light 1: DIQMTQSPSTLSASVGDRVTITCRASQSISSWLAWYQQKPGKAPKLLIYKASSLESGVPSRFSGSGSGTEFTLTISSLQPDDFATYYCQQYGSFPITFGGGTKVEIKRADAAPTVSIFPPSSEQLTSGGASVVCFLNNFYPKDINVKWKIDGSERQNGVLNSWTDQDSKDSTYSMSSTLTLTKDEYERHNSYTCEATHKTSTSPIVKSFNRNEC
heavy 2: EVQLQQSGAELVRPGALVKLSCKTSGFNIKDYFLHWVRQRPDQGLEWIGWINPDNGNTVYDPKFQGTASLTADTSSNTVYLQLSGLTSEDTAVYFCTRRDYTYEKAALDYWGQGASVIVSSAKTTAPSVYPLAPVCGGTTGSSVTLGCLVKGYFPEPVTLTWNSGSLSSGVHTFPALLQSGLYTLSSSVTVTSNTWPSQTITCNVAHPASSTKVDKKIEPRVPITQNPCPPLKECPPCAAPDLLGGPSVFIFPPKIKDVLMISLSPMVTCVVVDVSEDDPDVQISWFVNNVEVHTAQTQTHREDYNSTLRVVSALPIQHQDWMSGKEFKCKVNNRALPSPIEKTISKPRGPVRAPQVYVLPPPAEEMTKKEFSLTCMITGFLPAEIAVDWTSNGRTEQNYKNTATVLDSDGSYLMYSKLTVQKSTWERGSLFACSVVHEGLHNHLTTKTISRSLGK
light 2: DIQMSQSPASLSASVGETVTITCRASGNIYNYLAWYQQKQGKSPHLLVYDAKTLADGVPSRFSGSGSGTQYSLKISSLQTEDSGNYYCQHFWSLPFTFGSGTKLEIKRADAAPTVSIFPPSSEQLTSGGASVVCFLNNFYPKDINVKWKIDGSERQNGVLNSWTDQDSKDSTYSMSSTLTLTKDEYERHNSYTCEATHKTSTSPIVKSFNRNEC
notes: Heterodimer of mC26 and TA99 with mouse IgG2c as the Fc; also called murine cFAE-C26.99 TriNKET; TA99 TriNKET

From patent US20240166753A1 (DRAGONFLY THERAPEUTICS, published 2024)
